In patent publication US20250215104A1 (WALDEN BIOSCIENCES, published 2025) one finds koff data, which are given here for 34 molecules.

Residue numbers refer to the chain shown, from its start.

To fix the notation:
B1: suPAR_DB01_E12 (scFv, V domains shown)
VH: QVQLVQSGAEVKKPGASVKVSCKASGGTFSSYAISWVRQAPGQGLEWLGVINPGGGGTNYAQKFQGRVTMTRDTSTSTVYMELSSLRSEDTAVYYCARGYDVDWFVTWGQGTLVTVSS
VL: DIQMTQSPSSLSASVGDRVTITCQASQDISNYINWYQQKPGKAPKLLIYDASNLASGVPSRFSGSGSGTDFTLTISSLQPEDFATYYCQQYHSYPPTFGGGTKVEIK
notes: screened as scFv
B2: suPAR_DB01_D09 (scFv, V domains shown)
VH: QVQLVQSGAEVKKPGASVKVSCKASGYTFTNYYMHWVRQAPGQGLEWMGWIDHSNGNTIYAQKFQGRVTMTRDTSTSTVYMELSSLRSEDTAVYYCARGYDVDWFVYWGQGTLVTVSS
VL: DIQMTQSPSSLSASVGDRVTITCSARSSVSYMYWYQQKPGKAPKLLIYRTSNLASGVPSRFSGSGSGTDFTLTISSLQPEDFATYYCQQYHSYPPTFGGGTKVEIK
notes: screened as scFv
B3: suPAR_DB01_E02 (scFv, V domains shown)
VH: B2 VH with N31S, H53P, S54E, N55G, N57S, A61D
VL: B2 VL
notes: screened as scFv
B4: suPAR_DB01_E06 (scFv, V domains shown)
VH: B2 VH with T30I, H53P, S54E, A61D
VL: B2 VL
notes: screened as scFv
B5: suPAR_DB01_E11 (scFv, V domains shown)
VH: B2 VH with S54E, N57S
VL: B2 VL
notes: screened as scFv
B6: suPAR_DB01_E07 (scFv, V domains shown)
VH: B2 VH with N31S, S54E, A61D
VL: B2 VL with S24R, R26S
notes: screened as scFv
B7: suPAR_DB01_E08 (scFv, V domains shown)
VH: B2 VH with N31G, M34I, S54E, N57S, A61D
VL: B2 VL
notes: screened as scFv
B8: suPAR_DB01_E03 (scFv, V domains shown)
VH: B2 VH with N31D, S54E, I59S
VL: B2 VL
notes: screened as scFv
B9: suPAR_DB01_D12 (scFv, V domains shown)
VH: B2 VH with N31S, H53P, S54E, N57S, A61D
VL: B2 VL
notes: screened as scFv
B10: suPAR_DB01_E01 (scFv, V domains shown)
VH: B2 VH with T28S, N31S, H53P, S54E, N55G, N57S, A61D
VL: B2 VL
notes: screened as scFv
B11: suPAR_DB01_E09 (scFv, V domains shown)
VH: B2 VH with N31S, S54E, A61D
VL: B2 VL with V29I, A54Q
notes: screened as scFv
B12: suPAR_DB01_F01 (scFv, V domains shown)
VH: B2 VH with N31S, M34V, S54E, N57S
VL: B2 VL
notes: screened as scFv
B13: suPAR_DB01_E10 (scFv, V domains shown)
VH: B2 VH with N31G, S54E, N57S, I59S, A61D
VL: B2 VL with S24R, S27Q
notes: screened as scFv
B14: suPAR_DB01_E04 (scFv, V domains shown)
VH: B2 VH with N31G, S54E, A61D
VL: B2 VL with S27Q
notes: screened as scFv
B15: suPAR_DB01_D10 (scFv, V domains shown)
VH: B2 VH with N31G, S54E, N57S, I59S, A61D
VL: B2 VL with S27Q
notes: screened as scFv
B16: suPAR_DB03_B03 (scFv, V domains shown)
VH: B2 VH with H53P, S54E, N57S, A61D
VL: B2 VL
notes: screened as scFv
B17: suPAR_DB02_H09 (scFv, V domains shown)
VH: B2 VH with N31S, H53P, S54E, Y107F
VL: B2 VL with R49A, A54Q
notes: screened as scFv
B18: suPAR_DB03_A11 (scFv, V domains shown)
VH: B2 VH with N31S, M48V, I51M, H53P, S54N, N55S, N57G, I59S
VL: B2 VL
notes: screened as scFv
B19: suPAR_DB03_A05 (scFv, V domains shown)
VH: B2 VH with T30S, N31S, S54E
VL: B2 VL with N52S
notes: screened as scFv
B20: suPAR_DB03_B01 (scFv, V domains shown)
VH: B2 VH with Y27N, N31G, Y32H, H35Q, S54E, I59S
VL: B2 VL
notes: screened as scFv
B21: suPAR_DB02_H10 (scFv, V domains shown)
VH: B2 VH with N31S, A61D
VL: B2 VL with S27Q
notes: screened as scFv
B22: suPAR_DB02_H07 (scFv, V domains shown)
VH: B2 VH with N31S, M34V, I51V, H53P, N55S, N57A, I59D
VL: B2 VL
notes: screened as scFv
B23: suPAR_DB03_B05 (scFv, V domains shown)
VH: B2 VH with N31S, H53P, S54E, A61D, V102I
VL: B2 VL with S27Q
notes: screened as scFv
B24: suPAR_DB03_B08 (scFv, V domains shown)
VH: B2 VH with T28A, N31G, S54E, A61D
VL: B2 VL with S24R, S27Q
notes: screened as scFv
B25: suPAR_DB03_B04 (scFv, V domains shown)
VH: B2 VH with N31G, M48I, D52T, H53P, S54D, N55S, N57G, I59V
VL: B2 VL with R26S, V29I
notes: screened as scFv
B26: suPAR_DB03_B02 (scFv, V domains shown)
VH: B2 VH with Y27D, N31S, S54E, N57S, I59S, A61D
VL: B2 VL
notes: screened as scFv
B27: suPAR_DB03_A03 (scFv, V domains shown)
VH: B2 VH with N31G, S54E, N57S, A61D, R98V
VL: B2 VL
notes: screened as scFv
B28: suPAR_DB02_H06 (scFv, V domains shown)
VH: B2 VH with Y27F, T28N, F29I, T30K, N31D, M34I, H53P, S54E, N55G
VL: B2 VL with S24R
notes: screened as scFv
B29: suPAR_DB03_A06 (scFv, V domains shown)
VH: B2 VH with Y27F, T28N, F29I, N31D, M34I, H53P, S54E, N57S
VL: B2 VL with S27Q, V29I
notes: screened as scFv
B30: suPAR_DB02_H08 (scFv, V domains shown)
VH: B2 VH with N31G, M34I, H53P, S54E, N57S, A61D
VL: B2 VL
notes: screened as scFv
B31: suPAR_DB03_B06 (scFv, V domains shown)
VH: B2 VH with T28N, F29I, N31D, M34I, H53P, S54E, N57S, A61D
VL: B2 VL
notes: screened as scFv
B32: suPAR_DB03_A09 (scFv, V domains shown)
VH: B2 VH with N31S, Y32H, M34V, N57S, A61D
VL: B2 VL with S27Q, V29I
notes: screened as scFv
B33: suPAR_DB03_A10 (scFv, V domains shown)
VH: B2 VH with T30S, S54E, N57S
VL: B2 VL
notes: screened as scFv
B34: suPAR_DB03_A08 (scFv, V domains shown)
VH: B2 VH with N31G, S54E, N57S
VL: B2 VL with R26S
notes: screened as scFv

One assay deals with T1, cynomolgus soluble urokinase plasminogen activator receptor (suPAR) (cynomolgus, UniProt Q9GK78 23-303, limits assumed).
T1 construct: Target antigen of the off-rate screen; also called cynomolgus uPAR; cynomolgus suPAR
T1 sequence (Q9GK78 23-303 limits assumed): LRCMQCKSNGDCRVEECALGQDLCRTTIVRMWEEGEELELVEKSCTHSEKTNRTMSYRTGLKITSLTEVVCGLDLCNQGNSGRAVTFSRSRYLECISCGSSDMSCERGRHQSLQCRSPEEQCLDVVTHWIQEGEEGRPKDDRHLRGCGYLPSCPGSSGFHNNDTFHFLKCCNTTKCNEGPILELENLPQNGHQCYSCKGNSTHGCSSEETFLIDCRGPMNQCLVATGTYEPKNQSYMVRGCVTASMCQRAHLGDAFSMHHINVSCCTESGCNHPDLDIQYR
The experiment in a line: off-rate (kdis) screen of scFv clones, biosensor (Octet). (In general: BLI is a label-free optical method that tracks binding on a fibre tip over time.)
For B1, the koff – broadly, the first-order rate constant of dissociation – came to 0.0212 s⁻¹.
For B2, the dissociation rate constant (koff) worked out at 0.000506 s⁻¹.
B3 gave a koff of 0.000347 s⁻¹.
In turn, B4 yielded a dissociation rate constant (koff) of 0.000218 s⁻¹.
Still for that read-out and setting: next, B5: 0.000369 s⁻¹; B6: 6.72e-05 s⁻¹; B7: 5.85e-07 s⁻¹.
For B8, the koff amounted to 5.44e-05 s⁻¹.
Take B9: the off-rate (koff) was found to be 0.000232 s⁻¹.
Still for that read-out and setting: in the case of B10 it was 0.000254 s⁻¹; in that of B11, 0.000246 s⁻¹.
On the same count and under the same terms, in the case of B12 it was 0.000203 s⁻¹.
Still for that read-out and setting: in the case of B13 it was 0.000104 s⁻¹; in that of B14, 0.00031 s⁻¹; in that of B15, 0.000148 s⁻¹.

The target in a further assay is T2, human soluble urokinase plasminogen activator receptor (suPAR) (human, UniProt Q03405 23-303, limits assumed).
T2 construct: Target antigen of the off-rate screen; also called hsuPAR; human suPAR
T2 sequence (Q03405 23-303 limits assumed): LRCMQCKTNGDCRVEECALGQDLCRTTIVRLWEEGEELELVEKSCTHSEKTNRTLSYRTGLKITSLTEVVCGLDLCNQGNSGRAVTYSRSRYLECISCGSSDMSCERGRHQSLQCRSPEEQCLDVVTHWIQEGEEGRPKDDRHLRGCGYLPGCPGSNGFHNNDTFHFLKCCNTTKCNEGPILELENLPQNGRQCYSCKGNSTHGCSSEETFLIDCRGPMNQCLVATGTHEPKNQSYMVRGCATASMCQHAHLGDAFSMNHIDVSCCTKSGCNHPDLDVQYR
The assay is described as above.
As for B1, the koff stood at 0.0117 s⁻¹.
On the same count and under the same terms, next, B2: 0.00109 s⁻¹; B3: 0.00469 s⁻¹.
B4 yielded a koff of 0.00224 s⁻¹.
For the molecule B5, the koff turned out to be 0.000638 s⁻¹.
As to B6, the koff was determined as 0.00228 s⁻¹.
The same measure, in the same setting: next, B7: 0.000564 s⁻¹; B8: 0.00402 s⁻¹.
Same read-out and setting: in the case of B9 it was 0.00382 s⁻¹.
Molecule B10 yielded a koff of 0.00474 s⁻¹.
The same measure, in the same setting: next, B11: 0.00446 s⁻¹; B12: 0.000618 s⁻¹; B13: 0.00162 s⁻¹.
On the same count and under the same terms, in the case of B14 it was 0.0014 s⁻¹; in that of B15, 0.00147 s⁻¹.

The target of a further assay is T3, cynomolgus suPAR (cynomolgus, UniProt Q9GK78 23-303, limits assumed).
T3 construct: Target antigen of the off-rate screen; also called cynomolgus uPAR; cynoPLAUR-His
T3 sequence (Q9GK78 23-303 limits assumed): as the sequence (Q9GK78 23-303 limits assumed) above
The experiment in a line: BLI (Octet) off-rate screen of scFv clones.
With B16, the koff amounted to 0.00026 s⁻¹.
Regarding B17, the koff amounted to 0.00218 s⁻¹.
Still for that read-out and setting: next, B18: 7.99e-05 s⁻¹.
In the case of B19, the koff is 0.000259 s⁻¹.
B20 displayed an off-rate constant (koff) of 0.000343 s⁻¹.
B21 gave a koff of 0.000189 s⁻¹.
On to B22, for which the koff came out at 0.00146 s⁻¹.
On the same count and under the same terms, next, B23: 0.000126 s⁻¹.
Take B24: the koff amounted to 0.000226 s⁻¹.
In turn, B25 displayed a koff of 4.52e-07 s⁻¹.
In turn, B26 registered a koff of 0.000148 s⁻¹.
The molecule B27 had a koff of 0.000319 s⁻¹.
On the same count and under the same terms, next, B28: 0.000393 s⁻¹.
In turn, B29 came in with a koff of 6.32e-07 s⁻¹.
For B30, the koff came to 0.000228 s⁻¹.
In the case of B31, the koff is 1.08e-05 s⁻¹.
Consider B32, for which the koff amounted to 0.000254 s⁻¹.
Turning to B33, the koff turned out to be 0.000685 s⁻¹.
Turning to B34, the koff came out at 0.000269 s⁻¹.

The target in another assay is T4, human soluble urokinase plasminogen activator receptor (hsuPAR) (human, UniProt Q03405 23-303, limits assumed).
T4 construct: Target antigen of the off-rate screen; also called human suPAR; rhuPAR-His
T4 sequence (Q03405 23-303 limits assumed): as the sequence (Q03405 23-303 limits assumed) above
The experiment in a line: BLI (Octet) off-rate screen of scFv clones.
Take B16: the koff turned out to be 0.00347 s⁻¹.
As to B17, the koff was 0.0338 s⁻¹.
Still for that read-out and setting: next, B18: 0.00181 s⁻¹; B19: 0.0026 s⁻¹.
The same measure, in the same setting: next, B20: 0.00297 s⁻¹.
B21: the off-rate (koff) came out at 0.00344 s⁻¹.
Still for that read-out and setting: in the case of B22 it was 0.00317 s⁻¹; in that of B23, 0.00536 s⁻¹.
Same read-out and setting: next, B24: 0.00133 s⁻¹; B25: 0.00197 s⁻¹; B26: 0.0024 s⁻¹.
B27: the koff is 0.00199 s⁻¹.
In turn, B28 yielded a koff of 0.00305 s⁻¹.
Regarding B29, the off-rate constant (koff) was 0.00302 s⁻¹.
Same read-out and setting: next, B30: 0.00485 s⁻¹; B31: 0.00352 s⁻¹; B32: 0.00132 s⁻¹.
The same measure, in the same setting: in the case of B33 it was 0.000838 s⁻¹; in that of B34, 0.000306 s⁻¹.
